Reference: patent publication US20170267736A1

Each substance was assayed against human IGF-IR expressed on recombinant NIH-3T3 cells (human) (UniProt P08069) (assay: cell-based or functional assay).
Chain of UniProt P08069 (P08069 31-1367): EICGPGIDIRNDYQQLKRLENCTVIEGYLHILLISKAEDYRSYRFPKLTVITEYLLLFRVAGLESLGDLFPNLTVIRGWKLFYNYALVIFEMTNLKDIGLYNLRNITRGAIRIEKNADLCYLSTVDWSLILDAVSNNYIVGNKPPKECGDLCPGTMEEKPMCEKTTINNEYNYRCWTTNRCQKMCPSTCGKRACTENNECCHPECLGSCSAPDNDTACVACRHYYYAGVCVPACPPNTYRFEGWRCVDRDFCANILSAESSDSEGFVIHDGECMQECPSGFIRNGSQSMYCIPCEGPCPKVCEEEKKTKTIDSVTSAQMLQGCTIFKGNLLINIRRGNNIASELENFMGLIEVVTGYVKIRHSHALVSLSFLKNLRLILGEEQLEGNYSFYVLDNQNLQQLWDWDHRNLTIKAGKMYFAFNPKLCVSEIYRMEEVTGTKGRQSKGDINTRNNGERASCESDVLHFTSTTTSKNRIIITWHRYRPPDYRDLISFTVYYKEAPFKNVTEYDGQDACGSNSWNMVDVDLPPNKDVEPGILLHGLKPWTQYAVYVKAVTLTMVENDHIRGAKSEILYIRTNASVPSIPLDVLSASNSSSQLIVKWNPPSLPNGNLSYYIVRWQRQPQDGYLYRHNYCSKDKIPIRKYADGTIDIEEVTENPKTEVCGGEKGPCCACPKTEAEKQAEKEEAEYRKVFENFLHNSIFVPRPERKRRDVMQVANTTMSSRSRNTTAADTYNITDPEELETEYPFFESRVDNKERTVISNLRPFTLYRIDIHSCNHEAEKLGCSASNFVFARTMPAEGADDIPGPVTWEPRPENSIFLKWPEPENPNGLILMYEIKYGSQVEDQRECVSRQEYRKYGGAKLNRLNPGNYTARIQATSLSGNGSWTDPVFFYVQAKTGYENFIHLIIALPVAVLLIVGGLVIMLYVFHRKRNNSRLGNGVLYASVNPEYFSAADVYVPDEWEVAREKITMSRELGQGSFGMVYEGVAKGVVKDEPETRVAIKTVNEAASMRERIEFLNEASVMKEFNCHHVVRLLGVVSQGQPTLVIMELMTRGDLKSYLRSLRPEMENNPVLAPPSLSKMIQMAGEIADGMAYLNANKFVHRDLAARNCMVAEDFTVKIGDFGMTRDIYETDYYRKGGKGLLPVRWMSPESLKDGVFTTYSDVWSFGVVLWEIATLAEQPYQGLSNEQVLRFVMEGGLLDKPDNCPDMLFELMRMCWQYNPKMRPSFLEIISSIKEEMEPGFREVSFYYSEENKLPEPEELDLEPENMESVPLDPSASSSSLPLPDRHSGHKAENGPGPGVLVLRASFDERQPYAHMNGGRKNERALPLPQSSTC

Row | Activation of IGF-1R (phospho-IGF-IR ELISA), EC50 [nM] | Substance
1 | 1.2 nM | rhIGF-I (K27R, K65R) (from UniProt P05019 49-118) (ligand)
2 | 1.7 nM | wt-rhIGF - trypsin site - Strep-Tag (ligand)
3 | 18.4 nM | wt-rhIGF-I - YRHAK MCa PEG20000 (from UniProt P05019 49-118) (ligand)
